Test results taken from the supplement of paper PMC10065799, “High-throughput profiling of sequence recognition by tyrosine kinases and SH2 domains using bacterial peptide display” (eLife, 2023).

Target: FGFR3 (UniProt P22607)
Assay: phosphorylation enrichment, bacterial display (enrichment ratio); higher = better substrate or ligand; peptides without Tyr show the background
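Also: 11-residue human phosphosite peptides and single-mutation variants displayed on the E. coli surface, counted by deep sequencing, each peptide's frequency after selection divided by its frequency in the unselected input library; frequency after pTyr selection over input frequency; kinase dosed for 20-30% of maximal phosphorylation in three min.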

Sequence of FGFR3 (P22607 whole entry, looked up): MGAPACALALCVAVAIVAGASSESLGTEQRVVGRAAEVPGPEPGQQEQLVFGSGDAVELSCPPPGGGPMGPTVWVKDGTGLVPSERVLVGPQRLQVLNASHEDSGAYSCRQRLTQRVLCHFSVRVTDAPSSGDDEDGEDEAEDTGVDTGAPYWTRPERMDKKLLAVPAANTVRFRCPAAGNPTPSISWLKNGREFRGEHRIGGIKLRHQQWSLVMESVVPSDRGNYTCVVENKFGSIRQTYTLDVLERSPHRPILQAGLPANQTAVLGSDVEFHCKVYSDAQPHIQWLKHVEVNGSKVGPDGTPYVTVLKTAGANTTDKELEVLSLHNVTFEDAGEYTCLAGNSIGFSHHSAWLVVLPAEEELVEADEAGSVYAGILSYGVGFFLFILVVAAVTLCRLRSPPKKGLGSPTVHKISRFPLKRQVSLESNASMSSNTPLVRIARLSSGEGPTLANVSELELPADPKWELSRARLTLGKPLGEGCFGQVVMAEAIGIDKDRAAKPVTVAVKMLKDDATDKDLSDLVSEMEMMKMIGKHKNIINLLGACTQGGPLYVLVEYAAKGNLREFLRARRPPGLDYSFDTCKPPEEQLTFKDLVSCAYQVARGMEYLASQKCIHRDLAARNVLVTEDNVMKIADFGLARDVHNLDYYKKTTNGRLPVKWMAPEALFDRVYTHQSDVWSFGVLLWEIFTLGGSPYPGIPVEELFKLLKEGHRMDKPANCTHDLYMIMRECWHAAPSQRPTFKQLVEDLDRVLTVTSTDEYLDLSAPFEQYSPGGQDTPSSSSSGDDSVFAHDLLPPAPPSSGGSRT

| Sequence | phosphorylation enrichment |
| --- | --- |
| QEEPEYWDQET [HLA-A_Y83_G80E] | 1.43 |
| KILGRYYETSS [PAX2_Y72_G76S] | 0.541 |
| HQIQSYTCEID [DES_Y331] | 0.882 |
| PLDGEYFTRQI [TP53_Y327_L330R] | 0.651 |
| LQLLGYRPVYS [CHST6_Y358] | 0.91 |
| AAVDEYLEFRR [FAM221A_Y17_YF] | 0.531 |
| LTRDIYKNDFF [ROS1_Y2110_A2106T_YF] | 0.963 |
| DDDPEDRKFLE [UPF3B_Y160_Y160D] | 0.641 |
| GRLVEYDIDEV [SMS_Y134] | 0.771 |
| NPSFNYEIVNQ [DYNC1H1_Y3379_R3384Q_YF] | 0.847 |
| LKETGYVVERP [BCLAF1_Y466] | 0.609 |
| CTTNHYNYMCN [TP53_Y234_I232N] | 0.526 |
| CEQELYSQLVF [WAS_Y102_W97C_YF] | 1.79 |
| SVCPDYDLCSI [SQSTM1_Y148_V153I] | 0.763 |
| PKEEPYQMQEK [SLC5A3_Y565] | 1.21 |
| IGEGTYGVVYK [CDK2_Y15] | 0.67 |
| LSCLAYSGKDA [FXN_Y205_S202C] | 0.976 |

| Sequence | phosphorylation enrichment |
| --- | --- |
| NACGLYFKLHN [GATA2_Y376_YF] | 0.722 |
| SQDSAYHSGIQ [FLG_Y3940] | 0.512 |
| IVKAYYVRARA [AIPL1_Y268] | 0.471 |
| FEREQYADRAR [RBM4_Y355_YF] | 0.587 |
| GFEEAYSVFKK [PAFAH1B1_Y28_YF] | 0.412 |
| DKITQYVEEVK [STX2_Y49] | 0.78 |
| ARLEYCENEKK [IRS1_Y47_Y47C] | 0.702 |
| YETVKYFNNER [ABCB7_Y345] | 1.32 |
| QKNVSYVSTVS [TASOR_Y1043] | 0.506 |
| HLNLTYRILSF [MMP23B_Y95_F91L] | 1.27 |
| RSDEDYLYREE [POR_Y573] | 1.16 |
| IEDPYYGNDFD [ACP1_Y133_S137F] | 1.7 |
| IVLRSYPASDH [NID2_Y449_G453D] | 0.546 |
| SVGVPYEPPEV [TP53_Y220_V217G] | 0.748 |
| SKNYTYIWWLN [PSG4_Y271] | 0.77 |
| KLIMEYLPYGS [JAK2_Y931] | 0.68 |

Target: EPHB2 (UniProt P29323)
Sequence (P29323 whole entry, looked up): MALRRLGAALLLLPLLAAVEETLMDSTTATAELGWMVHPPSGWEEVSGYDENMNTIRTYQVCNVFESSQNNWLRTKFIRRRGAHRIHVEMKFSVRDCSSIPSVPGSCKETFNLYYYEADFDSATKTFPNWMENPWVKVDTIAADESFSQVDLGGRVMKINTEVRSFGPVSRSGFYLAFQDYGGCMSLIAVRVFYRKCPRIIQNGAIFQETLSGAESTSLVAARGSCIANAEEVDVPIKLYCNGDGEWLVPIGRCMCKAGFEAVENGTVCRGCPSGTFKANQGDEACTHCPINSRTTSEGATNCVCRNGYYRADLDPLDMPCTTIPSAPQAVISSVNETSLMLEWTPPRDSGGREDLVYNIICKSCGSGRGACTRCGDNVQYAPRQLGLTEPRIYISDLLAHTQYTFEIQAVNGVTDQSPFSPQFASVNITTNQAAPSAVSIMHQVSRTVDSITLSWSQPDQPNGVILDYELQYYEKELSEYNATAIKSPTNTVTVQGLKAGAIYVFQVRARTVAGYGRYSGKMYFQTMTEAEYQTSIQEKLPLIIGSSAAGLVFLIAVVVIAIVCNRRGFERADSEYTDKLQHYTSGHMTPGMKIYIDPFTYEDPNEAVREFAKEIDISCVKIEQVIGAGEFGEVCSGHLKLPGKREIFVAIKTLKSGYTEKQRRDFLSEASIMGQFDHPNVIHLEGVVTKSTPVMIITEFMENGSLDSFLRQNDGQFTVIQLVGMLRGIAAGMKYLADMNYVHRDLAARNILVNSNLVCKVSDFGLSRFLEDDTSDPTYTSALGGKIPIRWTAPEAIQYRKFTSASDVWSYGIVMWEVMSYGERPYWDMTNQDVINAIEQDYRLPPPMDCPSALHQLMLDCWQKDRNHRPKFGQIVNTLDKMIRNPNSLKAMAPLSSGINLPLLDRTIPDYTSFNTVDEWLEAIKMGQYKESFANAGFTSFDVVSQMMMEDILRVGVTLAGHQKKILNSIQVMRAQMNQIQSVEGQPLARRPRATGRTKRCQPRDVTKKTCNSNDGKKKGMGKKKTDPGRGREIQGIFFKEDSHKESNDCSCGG
Assay: as above

| Sequence | phosphorylation enrichment |
| --- | --- |
| QEEPEYWDQET [HLA-A_Y83_G80E] | 0.793 |
| KILGRYYETSS [PAX2_Y72_G76S] | 0.502 |
| HQIQSYTCEID [DES_Y331] | 0.802 |
| PLDGEYFTRQI [TP53_Y327_L330R] | 0.435 |
| LQLLGYRPVYS [CHST6_Y358] | 0.873 |
| AAVDEYLEFRR [FAM221A_Y17_YF] | 0.517 |
| LTRDIYKNDFF [ROS1_Y2110_A2106T_YF] | 0.495 |
| DDDPEDRKFLE [UPF3B_Y160_Y160D] | 0.501 |
| GRLVEYDIDEV [SMS_Y134] | 1.05 |
| NPSFNYEIVNQ [DYNC1H1_Y3379_R3384Q_YF] | 1.44 |
| LKETGYVVERP [BCLAF1_Y466] | 0.278 |
| CTTNHYNYMCN [TP53_Y234_I232N] | 0.483 |
| CEQELYSQLVF [WAS_Y102_W97C_YF] | 2.2 |
| SVCPDYDLCSI [SQSTM1_Y148_V153I] | 0.914 |
| PKEEPYQMQEK [SLC5A3_Y565] | 1.26 |
| IGEGTYGVVYK [CDK2_Y15] | 7.28 |
| LSCLAYSGKDA [FXN_Y205_S202C] | 0.643 |

| Sequence | phosphorylation enrichment |
| --- | --- |
| NACGLYFKLHN [GATA2_Y376_YF] | 0.496 |
| SQDSAYHSGIQ [FLG_Y3940] | 0.366 |
| IVKAYYVRARA [AIPL1_Y268] | 0.47 |
| FEREQYADRAR [RBM4_Y355_YF] | 0.446 |
| GFEEAYSVFKK [PAFAH1B1_Y28_YF] | 0.379 |
| DKITQYVEEVK [STX2_Y49] | 0.581 |
| ARLEYCENEKK [IRS1_Y47_Y47C] | 0.475 |
| YETVKYFNNER [ABCB7_Y345] | 0.611 |
| QKNVSYVSTVS [TASOR_Y1043] | 1.75 |
| HLNLTYRILSF [MMP23B_Y95_F91L] | 0.664 |
| RSDEDYLYREE [POR_Y573] | 0.854 |
| IEDPYYGNDFD [ACP1_Y133_S137F] | 0.859 |
| IVLRSYPASDH [NID2_Y449_G453D] | 0.495 |
| SVGVPYEPPEV [TP53_Y220_V217G] | 0.57 |
| SKNYTYIWWLN [PSG4_Y271] | 0.58 |
| KLIMEYLPYGS [JAK2_Y931] | 0.632 |

System: c-Src
Assay: as above

| Sequence | phosphorylation enrichment |
| --- | --- |
| QEEPEYWDQET [HLA-A_Y83_G80E] | 0.823 |
| KILGRYYETSS [PAX2_Y72_G76S] | 0.51 |
| HQIQSYTCEID [DES_Y331] | 0.502 |
| PLDGEYFTRQI [TP53_Y327_L330R] | 0.841 |
| LQLLGYRPVYS [CHST6_Y358] | 0.559 |
| AAVDEYLEFRR [FAM221A_Y17_YF] | 1.28 |
| LTRDIYKNDFF [ROS1_Y2110_A2106T_YF] | 0.475 |
| DDDPEDRKFLE [UPF3B_Y160_Y160D] | 0.503 |
| GRLVEYDIDEV [SMS_Y134] | 0.563 |
| NPSFNYEIVNQ [DYNC1H1_Y3379_R3384Q_YF] | 0.408 |
| LKETGYVVERP [BCLAF1_Y466] | 0.411 |
| CTTNHYNYMCN [TP53_Y234_I232N] | 0.373 |
| CEQELYSQLVF [WAS_Y102_W97C_YF] | 5.87 |
| SVCPDYDLCSI [SQSTM1_Y148_V153I] | 0.801 |
| PKEEPYQMQEK [SLC5A3_Y565] | 0.923 |
| IGEGTYGVVYK [CDK2_Y15] | 5.96 |
| LSCLAYSGKDA [FXN_Y205_S202C] | 0.665 |

| Sequence | phosphorylation enrichment |
| --- | --- |
| NACGLYFKLHN [GATA2_Y376_YF] | 0.358 |
| SQDSAYHSGIQ [FLG_Y3940] | 0.386 |
| IVKAYYVRARA [AIPL1_Y268] | 0.361 |
| FEREQYADRAR [RBM4_Y355_YF] | 0.396 |
| GFEEAYSVFKK [PAFAH1B1_Y28_YF] | 3.97 |
| DKITQYVEEVK [STX2_Y49] | 0.425 |
| ARLEYCENEKK [IRS1_Y47_Y47C] | 0.486 |
| YETVKYFNNER [ABCB7_Y345] | 1.14 |
| QKNVSYVSTVS [TASOR_Y1043] | 0.335 |
| HLNLTYRILSF [MMP23B_Y95_F91L] | 0.491 |
| RSDEDYLYREE [POR_Y573] | 0.56 |
| IEDPYYGNDFD [ACP1_Y133_S137F] | 2.94 |
| IVLRSYPASDH [NID2_Y449_G453D] | 0.416 |
| SVGVPYEPPEV [TP53_Y220_V217G] | 0.509 |
| SKNYTYIWWLN [PSG4_Y271] | 0.273 |
| KLIMEYLPYGS [JAK2_Y931] | 0.564 |

System: AncSZ
Assay: as above

| Sequence | phosphorylation enrichment |
| --- | --- |
| QEEPEYWDQET [HLA-A_Y83_G80E] | 2.08 |
| KILGRYYETSS [PAX2_Y72_G76S] | 0.568 |
| HQIQSYTCEID [DES_Y331] | 0.927 |
| PLDGEYFTRQI [TP53_Y327_L330R] | 1.09 |
| LQLLGYRPVYS [CHST6_Y358] | 1.29 |
| AAVDEYLEFRR [FAM221A_Y17_YF] | 1.14 |
| LTRDIYKNDFF [ROS1_Y2110_A2106T_YF] | 0.974 |
| DDDPEDRKFLE [UPF3B_Y160_Y160D] | 1.12 |
| GRLVEYDIDEV [SMS_Y134] | 1.28 |
| NPSFNYEIVNQ [DYNC1H1_Y3379_R3384Q_YF] | 1.43 |
| LKETGYVVERP [BCLAF1_Y466] | 0.768 |
| CTTNHYNYMCN [TP53_Y234_I232N] | 0.725 |
| CEQELYSQLVF [WAS_Y102_W97C_YF] | 1.59 |
| SVCPDYDLCSI [SQSTM1_Y148_V153I] | 1.72 |
| PKEEPYQMQEK [SLC5A3_Y565] | 2.33 |
| IGEGTYGVVYK [CDK2_Y15] | 0.907 |
| LSCLAYSGKDA [FXN_Y205_S202C] | 1.23 |

| Sequence | phosphorylation enrichment |
| --- | --- |
| NACGLYFKLHN [GATA2_Y376_YF] | 1.26 |
| SQDSAYHSGIQ [FLG_Y3940] | 0.557 |
| IVKAYYVRARA [AIPL1_Y268] | 1.01 |
| FEREQYADRAR [RBM4_Y355_YF] | 0.626 |
| GFEEAYSVFKK [PAFAH1B1_Y28_YF] | 0.803 |
| DKITQYVEEVK [STX2_Y49] | 1.11 |
| ARLEYCENEKK [IRS1_Y47_Y47C] | 0.795 |
| YETVKYFNNER [ABCB7_Y345] | 0.881 |
| QKNVSYVSTVS [TASOR_Y1043] | 0.815 |
| HLNLTYRILSF [MMP23B_Y95_F91L] | 1.43 |
| RSDEDYLYREE [POR_Y573] | 1.32 |
| IEDPYYGNDFD [ACP1_Y133_S137F] | 1.65 |
| IVLRSYPASDH [NID2_Y449_G453D] | 0.966 |
| SVGVPYEPPEV [TP53_Y220_V217G] | 1.16 |
| SKNYTYIWWLN [PSG4_Y271] | 1.09 |
| KLIMEYLPYGS [JAK2_Y931] | 0.989 |
